In this assay the target is IgG agarose beads (Sigma). Nature of the assay: pull-down with IgG agarose beads; recovered HS^act conversion activity.

Turning to “Protein A tagged mouse r3-OST-1 (from UniProt O35310 27-311)”, the HS^act conversion activity extracted is 7000 units and the recovery of initial HS^act conversion activity came to 10%.

The values are drawn from patent publication US6861254.
